Source: patent publication US20240218057A1 (ROCKEFELLER UNIVERSITY, published 2024)

Target: T1, SARS-COV-2 RBD (SARS-COV-2, UniProt P0DTC2 319-539)
T1 construct: also called WT RBD
Experiment: ELISA, RBD coated

B1: C997 (antibody, V domains shown)
VH: EVQLLESGGGLVQPGGSLRLSCAASGFTFSKDAMSWVRQAPGKGLEWVSTVTGSGTNTYYADSVKGRFTISRDNSNNTLYLQMNSLRAEDTAVYYCANHPLGAAEGYYYYYMDVWGKGTTVTVSS
VL: EIVLTQSPGTLSLSPGERGTLSCRASQRVPSSQLAWYQQKSGQAPRLLIYGASSRASGIPDRFSGSGSGTDFTLNISRLEPEDFAVYYCQQYGSLRALTFGGGTKVEIK
notes: IgG; V domains only
B1 was tested, and the EC50 was 3.49 ng/mL.

B2: C982 (antibody, V domains shown)
VH: EVQLVESGGGLVQPGGSLRLSCAASGFTFSNYDMHWVRQPTGGGLEWVSAIGTAGDTYYLASVKGRFTISRENAKNSLSLQMNSLRAGDTAVYYCVRGDTLVQGVIKAYYYYFMDVWGQGITVTVSS
VL: DIQMTQSPSSLSASVGDRVTITCRASQNISRYLNWYQQKPGKAPRLLIYAASTLQSGVPSRFSASGSGTDFTLTITNLQPEDFAVYYCQQTYVMPPYTLAQGTKLEIK
notes: IgG; V domains only
In the case of B2, the EC50 is reported as 2.56 ng/mL.

B3: C984 (antibody, V domains shown)
VH: QVQLVQSGTEVKKPGDSVQVSCKTSGYSFTGYYIHWVRQAPGQGLEWMGRINPNSGGTNYAQKFQGRVIMTRDTSITTAFMELTRLRYDDTAVYFCAREPIEGVIGGMIVNYYYMDVWGRGTTVTVSS
VL: QSALTQPASVSGSPGQSITISCTGTSSDVGGYYYVSWYQQHPGKAPKLMIYDVSSRPSGVSNRFSGSKSGNTASLTISGLQAEDEADYYCSSYTSSNTLVVFGGGTKLTVL
notes: IgG; V domains only
B3 was tested, and the EC50 was 2.76 ng/mL.

B4: C985 (antibody, V domains shown)
VH: QVQLVQSGAEVKKPGASVKVSCKASGYIFTGYYMHWVRQAPGQGLEWMGRINPNSGGSRYAEKFQGRVTMTRDTSIITAFMELRGLKSDDTAVYYCAREPIEAVPAGIIVNYYYMDVWGNGTTVTVSS
VL: QSALTQPASVSGSPGQSITISCTGTSSDVGGYNYVSWYQQHPGKAPKLMIYDVTSRPSGVSDRFSGSKSGTTASLTISGLQAEDEADYYCSSFTSAFTLVVFGGGTKLTVL
notes: IgG; V domains only
In the case of B4, the EC50 is reported as 3.67 ng/mL.

B5: C994 (antibody, V domains shown)
VH: QVQLQESGPGLVKPSGTLSLTCAVSGVSISNTNWWNWVRQPPGKGLEWIGEIYHTGSARYNPSLRSRVTISVDKSKNQFSLRLNSATAADTAIYYCARAQTPEFGELLYWGQGALVTVSS
VL: DIQMTQSPSSLSASVGDRVTITCRASQSITDHLNWYQQKPGKAPKLLIYAASSLQTGVPSRFSGSGSETDFTLTISTLQPEDFATYYCQQSYGPPTYSFGQGTKLEIK
notes: IgG; V domains only
B5 showed an EC50 of 2.09 ng/mL.

B6: C995 (antibody, V domains shown)
VH: EVQLVESGGGLIQPGRSLRLSCTASGFSVGDYAMSWFRQAPGKGLEWVGFLRNQHYGGTAEYAASVKGRFSISTDASKNIVYLQMDSLKTEDTAVYYCARNDRYIVIVPAEMLYWGQGTLVTVSS
VL: EIVMTQSPATLSVSPGERATLSCRATESVYSNLAWYQQKPGQAPRLLMYDASTRAPGIPARFSGSGSGTEFTLTISSLQSEDFATYYCQQYSNWPPITFGQGTRLEIK
notes: IgG; V domains only
In the case of B6, the EC50 is reported as 3.79 ng/mL.

B7: C998 (antibody, V domains shown)
VH: QVQLVQSGAEVKKPGASVKVSCKTSGYTFISYYIHWVRQAPGQGLEWMGIINPDGDNTNYAQKFQGRVTMTRDTSTSTVYMELSSLRFEDTAVYYCARGGAIPALRTAFDIWGQGTMVTVSS
VL: DIQMTQSPSTLSASVGDRVTITCRASQSISNWLAWYQQKPGKAPKLLIYKASSLESGVPSRFSGSGSGTEFTLTISSLQPDDFATYYCQEYNSYYFGQGTKLEIK
notes: IgG; V domains only
In the case of B7, the EC50 is reported as 2.51 ng/mL.

B8: C983 (antibody, V domains shown)
VH: QVQLVESGGGVVRPGRSLRLSCAASGFTFSKYGMHWVRQAPGKGLECVASIAYDGSDDSYADSVKGRFIISRDNSKNTLYLQMNSLRAADTAVYYCAKVLGSYCSASSCHGQRPDYWGQGTLVTVSS
VL: DIQMTQSPSSLSAYVGDRVTITCQASQDISNHLNWYQQKPGKAPNLLIYDASNLETGVPSRFSGSGSGTDFSFTISSLQPEDIATYYCQQYDNVPPWTFGQGTKVEIK
notes: IgG; V domains only
With B8 the EC50 was 2.11 ng/mL.
